Source: US20150160219

What was measured:
[1] = tested on: Indicator molecule of Example 5 with 3 MMP9 cleavage sites (terminal biotin, DNP, FITC)
[2] = tested on: Indicator molecule of Example 2 (peptide with one MMP9 cleavage site, first capture region ALP, terminal biotin via polyethylene glycol spacer)
[3] = tested on: Indicator molecule of Example 5 with 4 MMP9 cleavage sites (terminal biotin, DNP, FITC)
[4] = tested on: Indicator molecule of Example 3 (synthetic peptide with MMP-9 sequence, HNE sequence, DNP, fluorescent label and terminal biotin via PEG)
[5] = tested on: Indicator molecule of Example 4 with 3 MMP9 cleavage sites (ALP first capture region, terminal biotin via PEG)
[6] = tested on: Indicator molecule of Example 4 with 7 MMP9 cleavage sites (ALP first capture region, terminal biotin via PEG)
[7] = tested on: Indicator molecule of Example 4 with 2 MMP9 cleavage sites (ALP first capture region, terminal biotin via PEG)
[8] = tested on: Indicator molecule of Example 5 with 2 MMP9 cleavage sites (terminal biotin, DNP, FITC)
[9] = tested on: Indicator molecule of Example 4 with 5 MMP9 cleavage sites (ALP first capture region, terminal biotin via PEG)

Matrix Metalloprotease-9 (MMP-9) (Mologic), sequence (chain, as listed by the source): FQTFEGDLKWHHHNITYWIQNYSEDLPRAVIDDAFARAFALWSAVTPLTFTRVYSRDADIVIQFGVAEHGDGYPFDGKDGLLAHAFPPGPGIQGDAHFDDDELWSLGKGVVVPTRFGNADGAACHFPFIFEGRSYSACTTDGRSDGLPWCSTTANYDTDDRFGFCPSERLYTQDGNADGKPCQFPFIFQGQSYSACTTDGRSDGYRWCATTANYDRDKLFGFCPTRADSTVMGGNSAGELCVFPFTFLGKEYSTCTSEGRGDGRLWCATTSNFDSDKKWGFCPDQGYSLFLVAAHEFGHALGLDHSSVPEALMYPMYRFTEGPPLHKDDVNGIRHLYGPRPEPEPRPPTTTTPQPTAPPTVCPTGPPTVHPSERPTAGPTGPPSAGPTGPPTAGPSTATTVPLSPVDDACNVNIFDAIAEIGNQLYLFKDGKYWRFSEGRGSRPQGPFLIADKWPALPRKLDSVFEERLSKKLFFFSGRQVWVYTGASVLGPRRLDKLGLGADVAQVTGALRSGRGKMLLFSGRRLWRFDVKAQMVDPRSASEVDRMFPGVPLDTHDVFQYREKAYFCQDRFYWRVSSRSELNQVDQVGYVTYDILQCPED

Q: How did the “cut-off of the assay” value [1] turn out when “Matrix Metalloprotease-9 (MMP-9) (Mologic)” was run?
A: Its value is “The cut-off with all indicator molecules was below <31.25 ng/ml”.

Q: And the test line signal at 31.25 ng/ml MMP9 [1]?
A: The test line signal at 31.25 ng/ml MMP9 was 1.45 reader units.

Q: What about the test line signal at 62.5 ng/ml MMP9 [1] of the same substance?
A: Its test line signal at 62.5 ng/ml MMP9 is 2.56 reader units.

Q: What about the test line signal at 125 ng/ml MMP9 [1] of the same substance?
A: Its test line signal at 125 ng/ml MMP9 is 3.1 reader units.

Q: What about the test line signal at 250 ng/ml MMP9 [1] of the same substance?
A: The test line signal at 250 ng/ml MMP9 was 5.58 reader units.

Q: What about the test line signal at 500 ng/ml MMP9 [1] of the same substance?
A: The test line signal at 500 ng/ml MMP9 was 9.04 reader units.

Q: What about the test line signal at 1000 ng/ml MMP9 [1] of the same substance?
A: The test line signal at 1000 ng/ml MMP9 was 11.6 reader units.

Q: And the test line signal at 2000 ng/ml MMP9 [1]?
A: The test line signal at 2000 ng/ml MMP9 was 17.9 reader units.

Q: What about the “detectable limit of the lateral flow cleavage assay” value [2] of the same substance?
A: Its value is “approximately 250-500 ng/ml”.

Q: And the “sensitivity of the assay” value [2]?
A: The value was 250-500 ng/ml MMP9, seen with an indicator molecule having 1 cleavage site.

Q: What about the test line signal at 31.25 ng/ml MMP9 [2] of the same substance?
A: The test line signal at 31.25 ng/ml MMP9 was 0 reader units.

Q: What about the test line signal at 62.5 ng/ml MMP9 [2] of the same substance?
A: Its test line signal at 62.5 ng/ml MMP9 is 0 reader units.

Q: What about the test line signal at 125 ng/ml MMP9 [2] of the same substance?
A: The test line signal at 125 ng/ml MMP9 was 0 reader units.

Q: What about the test line signal at 250 ng/ml MMP9 [2] of the same substance?
A: The test line signal at 250 ng/ml MMP9 was 0 reader units.

Q: What about the test line signal at 500 ng/ml MMP9 [2] of the same substance?
A: The test line signal at 500 ng/ml MMP9 was 1.93 reader units.

Q: What about the test line signal at 1000 ng/ml MMP9 [2] of the same substance?
A: Its test line signal at 1000 ng/ml MMP9 is 4.52 reader units.

Q: What about the test line signal at 2000 ng/ml MMP9 [2] of the same substance?
A: The test line signal at 2000 ng/ml MMP9 was 8 reader units.

Q: What about the “cut-off of the assay” value [3] of the same substance?
A: The value was “The cut-off with all indicator molecules was below <31.25 ng/ml”.

Q: What about the test line signal at 31.25 ng/ml MMP9 [3] of the same substance?
A: The test line signal at 31.25 ng/ml MMP9 was 2.69 reader units.

Q: And the test line signal at 62.5 ng/ml MMP9 [3]?
A: The test line signal at 62.5 ng/ml MMP9 was 2.94 reader units.

Q: And the test line signal at 125 ng/ml MMP9 [3]?
A: Its test line signal at 125 ng/ml MMP9 is 5.63 reader units.

Q: What about the test line signal at 250 ng/ml MMP9 [3] of the same substance?
A: Its test line signal at 250 ng/ml MMP9 is 10.1 reader units.

Q: What about the test line signal at 500 ng/ml MMP9 [3] of the same substance?
A: The test line signal at 500 ng/ml MMP9 was 11.2 reader units.

Q: What about the test line signal at 1000 ng/ml MMP9 [3] of the same substance?
A: Its test line signal at 1000 ng/ml MMP9 is 16.3 reader units.

Q: And the test line signal at 2000 ng/ml MMP9 [3]?
A: Its test line signal at 2000 ng/ml MMP9 is 16.2 reader units.

Q: What about the “cut-off of the assay” value [4] of the same substance?
A: Its value is “The cut-off with all indicator molecules was below <31.25 ng/ml”.

Q: What about the “detectable limit of the lateral flow cleavage assay” value [4] of the same substance?
A: Its value is “approximately 125-250 ng/ml”.

Q: What about the test line signal at 31.25 ng/ml MMP9 [4] of the same substance?
A: The test line signal at 31.25 ng/ml MMP9 was 1.37 reader units.

Q: What about the test line signal at 62.5 ng/ml MMP9 [4] of the same substance?
A: Its test line signal at 62.5 ng/ml MMP9 is 1.28 reader units.

Q: What about the test line signal at 125 ng/ml MMP9 [4] of the same substance?
A: Its test line signal at 125 ng/ml MMP9 is 2.01 reader units.

Q: What about the test line signal at 250 ng/ml MMP9 [4] of the same substance?
A: Its test line signal at 250 ng/ml MMP9 is 3.34 reader units.

Q: What about the test line signal at 500 ng/ml MMP9 [4] of the same substance?
A: Its test line signal at 500 ng/ml MMP9 is 3.73 reader units.

Q: What about the test line signal at 1000 ng/ml MMP9 [4] of the same substance?
A: Its test line signal at 1000 ng/ml MMP9 is 4.33 reader units.

Q: What about the test line signal at 2000 ng/ml MMP9 [4] of the same substance?
A: Its test line signal at 2000 ng/ml MMP9 is 8.7 reader units.

Q: And the test line signal at 31.25 ng/ml MMP9 [5]?
A: The test line signal at 31.25 ng/ml MMP9 was 0 reader units.

Q: What about the test line signal at 62.5 ng/ml MMP9 [5] of the same substance?
A: Its test line signal at 62.5 ng/ml MMP9 is 0 reader units.

Q: And the test line signal at 125 ng/ml MMP9 [5]?
A: The test line signal at 125 ng/ml MMP9 was 0 reader units.

Q: And the test line signal at 250 ng/ml MMP9 [5]?
A: Its test line signal at 250 ng/ml MMP9 is 0.92 reader units.

Q: And the test line signal at 500 ng/ml MMP9 [5]?
A: The test line signal at 500 ng/ml MMP9 was 3.84 reader units.

Q: And the test line signal at 1000 ng/ml MMP9 [5]?
A: The test line signal at 1000 ng/ml MMP9 was 7.57 reader units.

Q: What about the test line signal at 2000 ng/ml MMP9 [5] of the same substance?
A: Its test line signal at 2000 ng/ml MMP9 is 10.5 reader units.

Q: What about the “sensitivity of the assay” value [6] of the same substance?
A: The value was <31.25 ng/ml for an indicator molecule having 7 cleavage sites.

Q: And the test line signal at 31.25 ng/ml MMP9 [6]?
A: Its test line signal at 31.25 ng/ml MMP9 is 2.27 reader units.

Q: And the test line signal at 62.5 ng/ml MMP9 [6]?
A: Its test line signal at 62.5 ng/ml MMP9 is 2.81 reader units.

Q: What about the test line signal at 125 ng/ml MMP9 [6] of the same substance?
A: Its test line signal at 125 ng/ml MMP9 is 3.25 reader units.

Q: And the test line signal at 250 ng/ml MMP9 [6]?
A: Its test line signal at 250 ng/ml MMP9 is 6.19 reader units.

Q: What about the test line signal at 500 ng/ml MMP9 [6] of the same substance?
A: Its test line signal at 500 ng/ml MMP9 is 9.31 reader units.

Q: What about the test line signal at 1000 ng/ml MMP9 [6] of the same substance?
A: Its test line signal at 1000 ng/ml MMP9 is 21.3 reader units.

Q: And the test line signal at 2000 ng/ml MMP9 [6]?
A: The test line signal at 2000 ng/ml MMP9 was 25.3 reader units.

Q: And the test line signal at 31.25 ng/ml MMP9 [7]?
A: Its test line signal at 31.25 ng/ml MMP9 is 0.68 reader units.

Q: And the test line signal at 62.5 ng/ml MMP9 [7]?
A: The test line signal at 62.5 ng/ml MMP9 was 0.32 reader units.

Q: And the test line signal at 125 ng/ml MMP9 [7]?
A: The test line signal at 125 ng/ml MMP9 was 0.57 reader units.

Q: And the test line signal at 250 ng/ml MMP9 [7]?
A: The test line signal at 250 ng/ml MMP9 was 1.99 reader units.

Q: And the test line signal at 500 ng/ml MMP9 [7]?
A: The test line signal at 500 ng/ml MMP9 was 3.48 reader units.

Q: What about the test line signal at 1000 ng/ml MMP9 [7] of the same substance?
A: Its test line signal at 1000 ng/ml MMP9 is 12 reader units.

Q: What about the test line signal at 2000 ng/ml MMP9 [7] of the same substance?
A: The test line signal at 2000 ng/ml MMP9 was 11.8 reader units.

Q: And the “cut-off of the assay” value [8]?
A: The value was “The cut-off with all indicator molecules was below <31.25 ng/ml”.

Q: And the test line signal at 31.25 ng/ml MMP9 [8]?
A: Its test line signal at 31.25 ng/ml MMP9 is 1.36 reader units.

Q: What about the test line signal at 62.5 ng/ml MMP9 [8] of the same substance?
A: The test line signal at 62.5 ng/ml MMP9 was 1.78 reader units.

Q: What about the test line signal at 125 ng/ml MMP9 [8] of the same substance?
A: Its test line signal at 125 ng/ml MMP9 is 3.46 reader units.

Q: And the test line signal at 250 ng/ml MMP9 [8]?
A: Its test line signal at 250 ng/ml MMP9 is 5.44 reader units.

Q: What about the test line signal at 500 ng/ml MMP9 [8] of the same substance?
A: The test line signal at 500 ng/ml MMP9 was 6.87 reader units.

Q: What about the test line signal at 1000 ng/ml MMP9 [8] of the same substance?
A: Its test line signal at 1000 ng/ml MMP9 is 5.48 reader units.

Q: What about the test line signal at 2000 ng/ml MMP9 [8] of the same substance?
A: The test line signal at 2000 ng/ml MMP9 was 12.8 reader units.

Q: What about the test line signal at 31.25 ng/ml MMP9 [9] of the same substance?
A: The test line signal at 31.25 ng/ml MMP9 was 1.04 reader units.

Q: What about the test line signal at 62.5 ng/ml MMP9 [9] of the same substance?
A: Its test line signal at 62.5 ng/ml MMP9 is 1.36 reader units.

Q: And the test line signal at 125 ng/ml MMP9 [9]?
A: Its test line signal at 125 ng/ml MMP9 is 2.14 reader units.

Q: And the test line signal at 250 ng/ml MMP9 [9]?
A: The test line signal at 250 ng/ml MMP9 was 5.01 reader units.

Q: And the test line signal at 500 ng/ml MMP9 [9]?
A: Its test line signal at 500 ng/ml MMP9 is 9.93 reader units.

Q: What about the test line signal at 1000 ng/ml MMP9 [9] of the same substance?
A: Its test line signal at 1000 ng/ml MMP9 is 16.8 reader units.

Q: What about the test line signal at 2000 ng/ml MMP9 [9] of the same substance?
A: Its test line signal at 2000 ng/ml MMP9 is 20.5 reader units.
